This note sets out measurements from US20240132591A1 (PANDION OPERATIONS, published 2024).

The labels stand for the following.
T1: Human MAdCAM (human, UniProt Q13477 19-317, limits assumed)
T1 construct: also called huMAdCAM; human MAdCAM-1
T1 sequence (looked up): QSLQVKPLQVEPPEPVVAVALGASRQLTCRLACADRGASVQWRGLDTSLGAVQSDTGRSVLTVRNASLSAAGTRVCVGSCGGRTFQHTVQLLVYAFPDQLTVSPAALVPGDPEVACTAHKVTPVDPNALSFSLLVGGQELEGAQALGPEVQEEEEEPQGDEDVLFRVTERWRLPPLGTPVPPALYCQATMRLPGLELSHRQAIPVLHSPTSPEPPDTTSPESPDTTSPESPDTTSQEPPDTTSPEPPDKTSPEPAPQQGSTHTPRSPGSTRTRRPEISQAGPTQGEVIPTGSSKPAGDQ

B1: MIAB136 (antibody, human IgG1, kappa)
heavy: EVQLLESGGGLVQPGGSLRLSCAASGFTFSSYAMSWVRQAPGKGLEWISYISGDSGYTNYADSVKGRFTISRDNSKNTLYLQMNSLRAEDTAVYYCARDRPYYYYMDVWGKGTTVTVSSASTKGPSVFPLAPSSKSTSGGTAALGCLVKDYFPEPVTVSWNSGALTSGVHTFPAVLQSSGLYSLSSVVTVPSSSLGTQTYICNVNHKPSNTKVDKKVEPKSCDKTHTCPPCPAPEAAGAPSVFLFPPKPKDTLMISRTPEVTCVVVDVSHEDPEVKFNWYVDGVEVHNAKTKPREEQYNSTYRVVSVLTVLHQDWLNGKEYKCKVSNKALPAPIEKTISKAKGQPREPQVYTLPPSREEMTKNQVSLTCLVKGFYPSDIAVEWESNGQPENNYKTTPPVLDSDGSFFLYSKLTVDKSRWQQGNVFSCSVMHEALHNHYTQKSLSLSPGGGGGSAPTSSSTKKTQLQLEHLLLDLQMILNGINNYKNPKLTRMLTFKFYMPKKATELKHLQCLEEELKPLEEALNLAPSKNFHLRPRDLISDINVIVLELKGSETTFMCEYADETATIVEFINRWITFSQSIISTLT
light: DIQMTQSPSSLSASVGDRVTITCRASQSVSRSLAWYQQKPGKAPKLLIYAASSLQSGVPSRFSGSGSGTDFTLTISSLQPEDFATYYCQQYKSYPVTFGQGTKVEIKRTVAAPSVFIFPPSDEQLKSGTASVVCLLNNFYPREAKVQWKVDNALQSGNSQESVTEQDSKDSTYSLSSTLTLSKADYEKHKVYACEVTHQGLSSPVTKSFNRGEC
notes: HCDR1 germlined
B2: MIAB147 (antibody, human IgG1, kappa)
heavy: EVQLLESGGGLVQPGGSLRLSCAASGFTFSDFWMHWVRQAPGKGLEWISYISGDSGYTNYADSVKGRFTISRDNSKNTLYLQMNSLRAEDTAVYYCARDRPYYYYMDVWGKGTTVTVSSASTKGPSVFPLAPSSKSTSGGTAALGCLVKDYFPEPVTVSWNSGALTSGVHTFPAVLQSSGLYSLSSVVTVPSSSLGTQTYICNVNHKPSNTKVDKKVEPKSCDKTHTCPPCPAPEAAGAPSVFLFPPKPKDTLMISRTPEVTCVVVDVSHEDPEVKFNWYVDGVEVHNAKTKPREEQYNSTYRVVSVLTVLHQDWLNGKEYKCKVSNKALPAPIEKTISKAKGQPREPQVYTLPPSREEMTKNQVSLTCLVKGFYPSDIAVEWESNGQPENNYKTTPPVLDSDGSFFLYSKLTVDKSRWQQGNVFSCSVMHEALHNHYTQKSLSLSPGGGGGSAPTSSSTKKTQLQLEHLLLDLQMILNGINNYKNPKLTRMLTFKFYMPKKATELKHLQCLEEELKPLEEALNLAPSKNFHLRPRDLISDINVIVLELKGSETTFMCEYADETATIVEFINRWITFSQSIISTLT
light: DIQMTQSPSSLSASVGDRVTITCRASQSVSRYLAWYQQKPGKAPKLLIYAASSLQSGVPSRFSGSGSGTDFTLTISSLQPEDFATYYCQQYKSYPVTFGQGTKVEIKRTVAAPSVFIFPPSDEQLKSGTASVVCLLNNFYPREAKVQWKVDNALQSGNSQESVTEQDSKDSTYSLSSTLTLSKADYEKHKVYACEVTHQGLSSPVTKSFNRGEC
notes: also called MIAB147-001
B3: MIAB149 (antibody, human IgG1, kappa)
heavy: EVQLLESGGGLVQPGGSLRLSCAASGFTFSDFWMHWVRQAPGKGLEWISYISGDSGYTNYADSVKGRFTISRDNSKNTLYLQMNSLRAEDTAVYYCARDRPYYYYMDVWGKGTTVTVSSASTKGPSVFPLAPSSKSTSGGTAALGCLVKDYFPEPVTVSWNSGALTSGVHTFPAVLQSSGLYSLSSVVTVPSSSLGTQTYICNVNHKPSNTKVDKKVEPKSCDKTHTCPPCPAPEAAGAPSVFLFPPKPKDTLMISRTPEVTCVVVDVSHEDPEVKFNWYVDGVEVHNAKTKPREEQYNSTYRVVSVLTVLHQDWLNGKEYKCKVSNKALPAPIEKTISKAKGQPREPQVYTLPPSREEMTKNQVSLTCLVKGFYPSDIAVEWESNGQPENNYKTTPPVLDSDGSFFLYSKLTVDKSRWQQGNVFSCSVMHEALHNHYTQKSLSLSPGGGGGSAPTSSSTKKTQLQLEHLLLDLQMILNGINNYKNPKLTRMLTFKFYMPKKATELKHLQCLEEELKPLEEALNLAPSKNFHLRPRDLISDINVIVLELKGSETTFMCEYADETATIVEFINRWITFSQSIISTLT
light: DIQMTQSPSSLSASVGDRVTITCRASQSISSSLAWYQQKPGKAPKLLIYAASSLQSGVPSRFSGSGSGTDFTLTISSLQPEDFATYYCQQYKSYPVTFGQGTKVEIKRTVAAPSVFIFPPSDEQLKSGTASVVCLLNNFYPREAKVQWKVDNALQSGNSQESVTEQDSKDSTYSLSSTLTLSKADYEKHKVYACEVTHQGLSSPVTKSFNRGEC
notes: also called MIAB149-001
B4: MIAB145 (antibody, human IgG1, kappa)
heavy: EVQLLESGGGLVQPGGSLRLSCAASGFTFSDFWMHWVRQAPGKGLEWISYISGDSGYTNYADSVKGRFTISRDNSKNTLYLQMNSLRAEDTAVYYCARDRPYYYYMDVWGKGTTVTVSSASTKGPSVFPLAPSSKSTSGGTAALGCLVKDYFPEPVTVSWNSGALTSGVHTFPAVLQSSGLYSLSSVVTVPSSSLGTQTYICNVNHKPSNTKVDKKVEPKSCDKTHTCPPCPAPEAAGAPSVFLFPPKPKDTLMISRTPEVTCVVVDVSHEDPEVKFNWYVDGVEVHNAKTKPREEQYNSTYRVVSVLTVLHQDWLNGKEYKCKVSNKALPAPIEKTISKAKGQPREPQVYTLPPSREEMTKNQVSLTCLVKGFYPSDIAVEWESNGQPENNYKTTPPVLDSDGSFFLYSKLTVDKSRWQQGNVFSCSVMHEALHNHYTQKSLSLSPGGGGGSAPTSSSTKKTQLQLEHLLLDLQMILNGINNYKNPKLTRMLTFKFYMPKKATELKHLQCLEEELKPLEEALNLAPSKNFHLRPRDLISDINVIVLELKGSETTFMCEYADETATIVEFINRWITFSQSIISTLT
light: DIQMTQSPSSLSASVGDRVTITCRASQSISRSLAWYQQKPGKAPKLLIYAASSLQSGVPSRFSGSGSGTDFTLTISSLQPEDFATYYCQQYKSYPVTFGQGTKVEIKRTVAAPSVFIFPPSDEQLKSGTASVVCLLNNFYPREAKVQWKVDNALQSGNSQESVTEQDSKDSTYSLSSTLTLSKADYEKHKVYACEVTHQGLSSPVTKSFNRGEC
notes: also called MIAB145-001
B5: MIAB137 (antibody, human IgG1, kappa)
heavy: EVQLLESGGGLVQPGGSLRLSCAASGFTFSDFWMHWVRQAPGKGLEWVSAISGSGGSTYYADSVKGRFTISRDNSKNTLYLQMNSLRAEDTAVYYCARDRPYYYYMDVWGKGTTVTVSSASTKGPSVFPLAPSSKSTSGGTAALGCLVKDYFPEPVTVSWNSGALTSGVHTFPAVLQSSGLYSLSSVVTVPSSSLGTQTYICNVNHKPSNTKVDKKVEPKSCDKTHTCPPCPAPEAAGAPSVFLFPPKPKDTLMISRTPEVTCVVVDVSHEDPEVKFNWYVDGVEVHNAKTKPREEQYNSTYRVVSVLTVLHQDWLNGKEYKCKVSNKALPAPIEKTISKAKGQPREPQVYTLPPSREEMTKNQVSLTCLVKGFYPSDIAVEWESNGQPENNYKTTPPVLDSDGSFFLYSKLTVDKSRWQQGNVFSCSVMHEALHNHYTQKSLSLSPGGGGGSAPTSSSTKKTQLQLEHLLLDLQMILNGINNYKNPKLTRMLTFKFYMPKKATELKHLQCLEEELKPLEEALNLAPSKNFHLRPRDLISDINVIVLELKGSETTFMCEYADETATIVEFINRWITFSQSIISTLT
light: DIQMTQSPSSLSASVGDRVTITCRASQSVSRSLAWYQQKPGKAPKLLIYAASSLQSGVPSRFSGSGSGTDFTLTISSLQPEDFATYYCQQYKSYPVTFGQGTKVEIKRTVAAPSVFIFPPSDEQLKSGTASVVCLLNNFYPREAKVQWKVDNALQSGNSQESVTEQDSKDSTYSLSSTLTLSKADYEKHKVYACEVTHQGLSSPVTKSFNRGEC
notes: HCDR2 germlined
B6: MIAB146 (antibody, human IgG1, kappa)
heavy: EVQLLESGGGLVQPGGSLRLSCAASGFTFSDFWMHWVRQAPGKGLEWISYISGDSGYTNYADSVKGRFTISRDNSKNTLYLQMNSLRAEDTAVYYCARDRPYYYYMDVWGKGTTVTVSSASTKGPSVFPLAPSSKSTSGGTAALGCLVKDYFPEPVTVSWNSGALTSGVHTFPAVLQSSGLYSLSSVVTVPSSSLGTQTYICNVNHKPSNTKVDKKVEPKSCDKTHTCPPCPAPEAAGAPSVFLFPPKPKDTLMISRTPEVTCVVVDVSHEDPEVKFNWYVDGVEVHNAKTKPREEQYNSTYRVVSVLTVLHQDWLNGKEYKCKVSNKALPAPIEKTISKAKGQPREPQVYTLPPSREEMTKNQVSLTCLVKGFYPSDIAVEWESNGQPENNYKTTPPVLDSDGSFFLYSKLTVDKSRWQQGNVFSCSVMHEALHNHYTQKSLSLSPGGGGGSAPTSSSTKKTQLQLEHLLLDLQMILNGINNYKNPKLTRMLTFKFYMPKKATELKHLQCLEEELKPLEEALNLAPSKNFHLRPRDLISDINVIVLELKGSETTFMCEYADETATIVEFINRWITFSQSIISTLT
light: DIQMTQSPSSLSASVGDRVTITCRASQSVSSSLAWYQQKPGKAPKLLIYAASSLQSGVPSRFSGSGSGTDFTLTISSLQPEDFATYYCQQYKSYPVTFGQGTKVEIKRTVAAPSVFIFPPSDEQLKSGTASVVCLLNNFYPREAKVQWKVDNALQSGNSQESVTEQDSKDSTYSLSSTLTLSKADYEKHKVYACEVTHQGLSSPVTKSFNRGEC
notes: also called MIAB146-001

The test concerns the target T1, Human MAdCAM. The test can be described thus: BLI Octet, AHC capture.
As to B1, the binding result is listed as “no binding (tested: 150 nM)”.
With B2, the binding result is “no binding (tested: 200 nM)”.
As a reminder, the Kd is the free concentration of one partner at which half of the binding sites on the other are occupied at equilibrium, for simple one-to-one binding. A low value points to higher affinity. A word on the koff: it is the first-order rate constant of dissociation. Read a low koff as slow dissociation. What is called kon is the second-order rate constant of association. In turn, B3 registered a Kd of 68.8 nM, a koff of 0.0259 s⁻¹ and a kon of 376000 M⁻¹ s⁻¹.
Take B4: binding was characterised by a dissociation constant (Kd) of 22.2 nM, the dissociation rate constant (koff) is 0.00897 s⁻¹ and the kon was determined as 405000 M⁻¹ s⁻¹.
B5 registered a Kd of 203 nM, an off-rate (koff) of 0.082 s⁻¹ and a kon of 404000 M⁻¹ s⁻¹.
The like results for B6 were, in that order, 43.8 nM, 0.0197 s⁻¹ and 449000 M⁻¹ s⁻¹.
